Patent US20200316226A1

Assays:
[1] = target: CD68 on macrophages of mouse splenocytes (mouse) (UniProt P31996); assay: cell-based or functional assay
[2] = target: Discoidin domain receptor tyrosine kinase 2 (DDR2) on neonatal rat cardiac fibroblasts (rat); assay: cell-based or functional assay

UniProt P31996, sequence (P31996 21-326): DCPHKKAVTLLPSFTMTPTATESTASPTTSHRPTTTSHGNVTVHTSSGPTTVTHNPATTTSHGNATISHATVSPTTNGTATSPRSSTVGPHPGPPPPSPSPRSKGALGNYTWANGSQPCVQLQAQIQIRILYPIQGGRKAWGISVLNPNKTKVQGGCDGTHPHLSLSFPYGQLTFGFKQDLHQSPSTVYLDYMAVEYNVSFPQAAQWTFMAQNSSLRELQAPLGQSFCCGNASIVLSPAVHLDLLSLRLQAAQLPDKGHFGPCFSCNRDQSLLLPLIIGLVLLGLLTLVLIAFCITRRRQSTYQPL

Substance	macrophage uptake of FITC:CD68-cloaked CDCexo by FACS, 5 minutes of incubation [1] [%]	macrophage uptake of FITC:CD68-cloaked CDCexo by FACS, 15 minutes of incubation [1] [%]	rate of uptake of control-cloaked CDCexo by rat cardiac fibroblasts, flow cytometry [2] [%]	uptake of bio-IgG/FITC CDC-EV by neonatal rat cardiac fibroblasts after twelve hours, flow cytometry [2] [%]
biotinylated CD68 monoclonal antibody (bio-CD68), clone FA-11 (ThermoFisher)	91	93	–	–
biotinylated IgG isotype antibody (bio-IgG) control (rabbit IgG isotype control, Abcam cat # ab200208)	–	–	5	5
